Results from PMC12124358 (Science Advances, 2025).

Target: Clr4 lysine methyltransferase (KMT) domain (residues 192 to 490) (S. pombe, UniProt O60016 192-490)
Experiment: ITC

Chain of Clr4 lysine methyltransferase (KMT) domain (residues 192 to 490) (O60016 192-490): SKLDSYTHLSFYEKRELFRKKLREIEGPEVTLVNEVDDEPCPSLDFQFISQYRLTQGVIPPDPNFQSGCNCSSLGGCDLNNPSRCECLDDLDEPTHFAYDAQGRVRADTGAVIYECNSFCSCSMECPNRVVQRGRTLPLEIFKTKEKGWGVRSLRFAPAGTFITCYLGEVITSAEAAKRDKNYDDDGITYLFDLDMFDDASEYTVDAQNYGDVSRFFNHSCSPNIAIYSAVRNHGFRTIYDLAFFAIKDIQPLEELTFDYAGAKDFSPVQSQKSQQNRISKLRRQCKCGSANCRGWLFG

Kd: 133 ± 13 µM
B1: H3(1–20)_([change])-Ub_([change]), disulfide bond-linked ubiquitinated H3 tail (other)
chain 1: ARTKQTARKSTGGCAPRKQL
chain 2: […]
